Data reported in patent US7291332B2, “Inflammatory mediator antagonists” (SmithKline Beecham Corporation, priority 1998, dated 2007).
Where a chain is given by its changes, count along the chain named. Numbers in names are those of the source. Entries after “also recorded” stand apart in the source; their conditions may differ.

B1: (13) Q20A: OSM-GST fusion, alanine for Gln 20 (protein)
chain: AAIGSCSKEYRVLLGQLQKATDLMQDTSRLLDPYIRIQGLDVPKLREHCRERPGAFPSEETLRGLGRRGFLQTLNATLGCVLHRLADLEQRLPKAQDLERSGLNIEDLEKLQMARPNILGLRNNIYCMAQLLDNSDTAEPTKAGRGASQPPTPTPASDAFQRKLEGCRFLHGYHRFMHSVGRVFSKWGESPNRSRR
modifications: left off: a dimerising Fc or GST; large carriers; small tags and cut ends
B2: (22) N123A: OSM-GST fusion, alanine for Asn 123 (protein)
chain: B1 chain with A20Q, N123A
modifications: left off: a dimerising Fc or GST; large carriers; small tags and cut ends
B3: (3) E9A: OSM-GST fusion, alanine for Glu 9 (protein)
chain: B1 chain with E9A, A20Q
modifications: left off: a dimerising Fc or GST; large carriers; small tags and cut ends
B4: (9) Q16A: OSM-GST fusion, alanine for Gln 16 (protein)
chain: B1 chain with Q16A, A20Q
modifications: left off: a dimerising Fc or GST; large carriers; small tags and cut ends
B5: (6) L13A: OSM-GST fusion, alanine for Leu 13 (protein)
chain: B1 chain with L13A, A20Q
B6: (23) N124A: OSM-GST fusion, alanine for Asn 124 (protein)
chain: B1 chain with A20Q, N124A
modifications: left off: a dimerising Fc or GST; large carriers; small tags and cut ends
B7: (2) K8A: OSM-GST fusion, alanine for Lys 8 (protein)
chain: B1 chain with K8A, A20Q
modifications: left off: a dimerising Fc or GST; large carriers; small tags and cut ends
B8: (20) G120A: OSM-GST fusion, alanine for Gly 120 (protein)
chain: B1 chain with A20Q, G120A
modifications: left off: a dimerising Fc or GST; large carriers; small tags and cut ends
B9: (1) S7A: OSM-GST fusion, alanine for Ser 7 (protein)
chain: B1 chain with S7A, A20Q
modifications: left off: a dimerising Fc or GST; large carriers; small tags and cut ends

tested on: HepG2 B6 cells (STAT-sPAP reporter); experiment: OSM-GST mutant driven sPAP production in HepG2 B6 assay; format: cell-based, human; settings: not given
Protocol: HepG2 B6 cells were plated into 96 well plates to a final concentration of 3×10^4 cells per well in 100 μl of media (DMEM (Sigma), 10% HI FCS, 1% non-essential amino acids, 2 mM Glutamine, 500 μg ml^−1 G418, (all from Life Technologies)). Cells were allowed to equilibrate for 48 hours. Putative anti-OSM solid compounds were made up to a stock dilution of 20 mM in DMSO and serially diluted 1:3 in DMSO. This was then further diluted in HepG26B assay media, this is as above media but with 1% heat inactivated FCS, low alkaline phosphatase activity (Life Technologies) substituted for 10% HI FCS. Compounds were diluted 1:3 from a top concentration of […] to a final concentration of 0.09 μM in a final concentration of 1% DMSO. (That is 200, 66.67, 22.22, 7.41, 2.47, 0.82, 0.27, 0.09 and 0 μM). The old media was removed from the wells and replaced with diluted compound also containing 2 ng ml^−1 OSM (R&D Systems), cells were incubated for a further 20 hours. Each dilution was performed in triplicate. 20 μl of media was removed from each well and assayed for sPAP activity using pNPP (p-Nitrophenyl phosphate; Sigma), as a substrate. Endogenous alkaline phosphatase is blocked with L-homoarginine. Optical density of substrate is read at 405-650 nm. Concentration of compound is plotted against OD as a measure of sPAP produced and can be analysed to determine IC50 values.
The assay described in Example 7b above was employed. OSM-GST mutants were diluted to a concentration of 100 ng ml^−using the known concentration of intact OSM mutants generated in Example 9b. A wild type OSM-GST was included for control purposes. Dilutions were made in HepG2 B6 media with 1% heat inactivated FCS, low alkaline phosphatase activity. Serial 1:3 dilutions were then made. (100; 33.33; 11.11; 3.7; 1.23; 0.4 ng ml^−1). 3×10^4 HepG2 B6 were dispensed into individual well of a 96 well plate in 100 μl of media. Cells were allowed to equilibrate for 48 hours. Media was then removed and replaced with 100 μl of diluted OSM-GST mutant. Cells were incubated for a further 20 hours. Each dilution was performed in triplicate. 20 μl of media was removed and assayed for sPAP using pNPP as a substrate. Endogenous ALP was blocked with L-homoarginine. O.D. was read at 405-650 nm. The experiment was repeated twice.

Row | Molecule | driving sPAP production | Expt 1 EC50 [µg/mL] | Expt 2 EC50 [µg/mL]
1 | B1 | less effective at driving sPAP production; also recorded: didn't drive sPAP at all | – | –
2 | B2 | – | 0.0379 | 0.0497
3 | B3 | – | 0.0236 | 0.0089
4 | B4 | less effective at driving sPAP production; also recorded: didn't drive sPAP at all | – | –
5 | B5 | – | 0.0657 | 0.0549
6 | B6 | – | 0.0302 | 0.0362
7 | B7 | – | 0.016 | 0.0125
8 | B8 | less effective at driving sPAP production; also recorded: didn't drive sPAP at all | – | –
9 | B9 | – | 0.012 | 0.0222

same assay, conditions: relative to wild type, from Mean %

Row | Molecule | 'Potency'
10 | B1 | NONE
11 | B2 | LESS (>120% Less potent than wild type)
12 | B3 | MORE (<80% More potent)
13 | B4 | NONE
14 | B5 | LESS (>120% Less potent than wild type)
15 | B6 | EQUAL (80-120% Equal potency)
16 | B7 | MORE (<80% More potent)
17 | B8 | NONE
18 | B9 | MORE (<80% More potent)

target: T1, gp130-Fc (Homo sapiens, UniProt P40189); experiment: Competition of OSM-GST with plate-bound wild type OSM for binding to gp130-Fc (ELISA); settings: not given
T1 construct: DNA encoding the extracellular domain of human gp130 was amplified; made in house; host or cells: insect cells (Bac-to-Bac baculovirus) for gp130-Fc; E. coli BLR-DE3 for OSM
T1 sequence (P40189 23-619 limits assumed): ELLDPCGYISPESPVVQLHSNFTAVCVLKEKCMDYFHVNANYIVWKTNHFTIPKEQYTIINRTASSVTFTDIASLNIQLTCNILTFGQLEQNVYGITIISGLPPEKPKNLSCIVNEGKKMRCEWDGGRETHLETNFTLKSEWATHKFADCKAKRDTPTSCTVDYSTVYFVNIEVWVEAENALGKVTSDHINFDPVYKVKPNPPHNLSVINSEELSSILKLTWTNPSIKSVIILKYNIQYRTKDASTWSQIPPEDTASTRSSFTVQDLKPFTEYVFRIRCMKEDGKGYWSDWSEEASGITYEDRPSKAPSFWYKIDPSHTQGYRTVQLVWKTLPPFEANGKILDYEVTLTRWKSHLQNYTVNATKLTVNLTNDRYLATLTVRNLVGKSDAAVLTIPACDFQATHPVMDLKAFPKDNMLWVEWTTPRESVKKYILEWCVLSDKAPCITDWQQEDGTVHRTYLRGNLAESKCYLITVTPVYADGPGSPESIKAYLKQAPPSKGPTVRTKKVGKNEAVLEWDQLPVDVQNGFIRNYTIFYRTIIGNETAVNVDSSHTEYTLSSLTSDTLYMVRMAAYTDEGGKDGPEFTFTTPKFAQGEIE
Protocol: Nunc Immunoplates (F6 Maxisorp, Life Technologies) were coated overnight (4° C.) with wild type OSM (produced according to Example 7a); 50 μl/well, 1 μg/ml in carbonate/bicarbonate buffer pH 9.4). Plates were washed (×6 in PBS 0.05% tween 20, using Skatron Plate washer), tapped dry and blocked to reduce non-specific binding (200 μl/well, 1% BSA/PBS). Following 1 h incubation (room temperature on a shaking platform) the plates were tapped dry and wild type (wt) or mutant OSM-GST from Example 9b added (50 μl/well, 20-0.002 μg/ml, titrated in 1%BSA/PBS). As a positive control polyclonal anti-human OSM antibody (R&D Systems) was also tested (20-0.02 μg/ml). A complex of gp130-Fc (Produced as below 300 ng/ml) and anti-human IgG alkaline phosphatase conjugate (1:500, Sigma) in 1% BSA/PBS (50 μl/well) was added immediately after the agents under test. Following a 5 h incubation (room temperature on a shaking platform) the plates were washed (×6) and developed using ELISA Amplification System (Life Technologies) as manufacturer's instructions and the OD measured at 490 nm. On each plate the total binding was determined by gp130-Fc/conjugate and OSM in the presence of 1% BSA/PBS, and non-specific binding by gp130-Fc/conjugate in absence of OSM, or conjugate binding to OSM in absence of gp130-Fc.
Mutant and wt OSM-GST were tested to obtain IC50 in 3-6 experiments. The mean OD in the presence of OSM and gp130-Fc in the absence of competing ligand (i.e., total binding) was 1.157 (range 0.825-1.807) and the non specific binding was less than 0.08.

Row | Molecule | ability to compete with wt OSM for gp130 binding
19 | B1 | substantial decrease
20 | B2 | substantial decrease
21 | B4 | substantial decrease
22 | B5 | substantial decrease
23 | B6 | substantial decrease
24 | B8 | substantial decrease

same assay, conditions: at the maximum concentration tested (10 μg/ml)

Row | Molecule | inhibition [%]
25 | B1 | 66±2.3
26 | B4 | 15±8
